Assay results from patent publication US6410329.

Tests used:
Experiment in all cases: cell_activity
[1] = system: VirD1 (Agrobacterium tumefaciens); details: VirD1 alone
[2] = biological target: T1, VirD1-VirD2 translational fusion (p35SD1D2) (Agrobacterium tumefaciens) (UniProt P06668)
T1 sequence: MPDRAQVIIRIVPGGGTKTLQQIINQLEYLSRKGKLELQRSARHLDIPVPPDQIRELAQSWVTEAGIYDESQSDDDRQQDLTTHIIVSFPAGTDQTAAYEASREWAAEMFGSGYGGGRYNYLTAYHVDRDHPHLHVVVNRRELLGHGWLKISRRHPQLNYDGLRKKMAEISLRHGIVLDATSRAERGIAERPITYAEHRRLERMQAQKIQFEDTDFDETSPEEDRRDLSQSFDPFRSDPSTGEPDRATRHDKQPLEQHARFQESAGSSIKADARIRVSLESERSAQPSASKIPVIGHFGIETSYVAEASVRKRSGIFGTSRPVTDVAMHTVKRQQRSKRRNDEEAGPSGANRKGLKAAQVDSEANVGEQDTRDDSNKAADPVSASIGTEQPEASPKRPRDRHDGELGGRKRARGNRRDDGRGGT

[3] = biological target: T2, VirD2-VirD1 translational fusion (p35SD2D1) (Agrobacterium tumefaciens) (UniProt P06668)
T2 sequence: T1 sequence

[4] = maize, pwBarRBLuc geminivirus vector

Row | Sequence | activity (% of control luciferase) ([1]; tobacco) | activity (Luc/GUS ratio) ([1]; maize, target alone 15.0) | activity (% of control luciferase) [2, 4] | activity (% of control luciferase) [3, 4] | activity (% of control luciferase) ([1]; maize) | activity (% of control luciferase) ([2]; maize, 1 ug + 4 ug) | activity (% of control luciferase) ([2]; tobacco, 0.5 ug + 2 ug) | activity (% of control luciferase) ([3]; maize, 1 ug + 4 ug) | activity (% of control luciferase) ([3]; tobacco, 0.5 ug + 2 ug)
1 | ATCCGGCAGGATATATACCGTTGTAATTCTGCA (double strand) [T-DNA right border reversed, pRB(-)Luc] | 95 | – | – | – | – | – | – | – | –
2 | ATCCGGCAGGATATATACCGTTGTAATTCTGCA (double strand) [right border in WDV replicon pwi35SRBLuc] | – | 8.1 | 6 | 3.6 | – | – | – | – | –
3 | ATCCGGCAGGATATATACCGTTGTAATTCTGCA (double strand) [T-DNA right border duplex, pRB(+)Luc] | 72 | – | – | – | 105 | 2.4 | 5.4 | 2.6 | 5
